# Assay results published in article PMC7323979.
# Target: α-synuclein fibrils (preformed seeds) (human) (UniProt P37840)
# Chain of bovine γB-crystallin (P02526 whole entry): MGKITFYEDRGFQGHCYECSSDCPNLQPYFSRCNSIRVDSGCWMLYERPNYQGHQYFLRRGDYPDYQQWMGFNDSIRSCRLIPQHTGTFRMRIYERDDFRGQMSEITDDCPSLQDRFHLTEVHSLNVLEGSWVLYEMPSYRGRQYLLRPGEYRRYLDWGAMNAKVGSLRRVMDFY
substance,measurement,value
bovine γB-crystallin (from UniProt P02526 1-175) (natural protein),"lowest crystallin concentration which efficiently inhibits α-syn fibril formation (ThT, 20 μM α-syn monomer, 1 μM α-syn seeds, pH 5.5, 37°C); the same value is also printed as 4.75 μM monomers",0.1 mg/ml
